Laboratory results from patent US20200392230A1 (QLB BIOTHERAPEUTICS, published 2020).

What was measured:
CD20 = target: T1, CD20 (UniProt P11836 1-297, limits assumed); assay: FACS, cell surface binding on Raji cells
T1 construct: whole, on cells; also called CD20 on Raji cells; CD20 on Daudi cells
T1 sequence (looked up): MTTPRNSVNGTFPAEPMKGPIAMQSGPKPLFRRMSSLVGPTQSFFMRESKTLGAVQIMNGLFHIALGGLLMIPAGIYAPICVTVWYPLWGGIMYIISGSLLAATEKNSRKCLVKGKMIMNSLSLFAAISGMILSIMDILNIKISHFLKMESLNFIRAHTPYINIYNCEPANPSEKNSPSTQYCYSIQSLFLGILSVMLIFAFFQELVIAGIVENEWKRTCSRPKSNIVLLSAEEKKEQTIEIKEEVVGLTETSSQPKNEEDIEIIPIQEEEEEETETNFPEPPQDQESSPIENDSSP
Protocol: (§1) After washing in phosphate buffered saline (PBS), fluorescence conjugated secondary antibodies were added to the cell mixture. The stained cells were analyzed in an LSR II FACS machine (BD Biosciences). Mean fluorescence intensity (MFI) was used to indicate the binding strength of the tested antibodies.

CD3 = target: T2, CD3 (UniProt P07766 23-207); assay: FACS, cell surface binding on Jurkat cells (CD3+), fluorescent secondary antibody, MFI
T2 construct: whole, on cells; In the functional assays CD3 stood on engineered effector cells or on T cells of human PBMCs; also called CD3 on Jurkat cells; TCR/CD3 complex
T2 sequence (P07766 23-207): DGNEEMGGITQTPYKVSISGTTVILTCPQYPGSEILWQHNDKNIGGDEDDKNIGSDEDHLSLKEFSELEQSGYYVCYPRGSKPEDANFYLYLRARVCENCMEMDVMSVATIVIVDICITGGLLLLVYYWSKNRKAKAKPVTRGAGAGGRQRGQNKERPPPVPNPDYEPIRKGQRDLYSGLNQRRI
Protocol: as §1

B1: QLB1005-0003 (bispecific antibody)
chain 1: EVQLVESGGGLVQPGGSLKLSCAASGFTFNTYAMNWVRQASGKGLEWVARIRSKYNNYATYYADSVKDRFTISRDDSKNTLYLQMNSLKTEDTAVYYCVRHGNFGNSYVSWFAYWGQGTLVTVSSGGGGSGGGGSGGGGSQAVVTQEPSLTVSPGGTVTLTCRSSTGAVTTSNYANWVQQKPGQAPRGLIGGTNKRAPGVPARFSGSLLGDKAALTLSGAQPEDEAEYYCALWYSNLWVFGTGTKVTVLGGGGSASTKGPSVFPLAPSSKSTSGGTAALGCLVKDYFPEPVTVSWNSGALTSGVHTFPAVLQSSGLYELVSVVTVPSSSLGTQTYICNVNHKPSNTKVDKKVEPKSC
chain 2: QVQLVQSGAEVKKPGASVKVSCKASGYTFTSYNMHWVRQAPGQGLEWIGAIYPGNGDTSYNQKFKGKATLTADKSTSTAYMELSSLRSEDTAVYYCARSTYYGGDWYFNVWGQGTLVTVSSGGGGSGGGGSGGGGSQIVLTQSPATLSLSPGERATLSCRASSSVSYIHWFQQKPGQAPRPWIYATSNLASGVPARFSGSGSGTDYTLTISSLEPEDFAVYYCQQWTSNPPTFGQGTKVEIKGGGGSRTVAAPSVFIFPPSDEQLKSGTASVVCLLNNFYPREAKVQWKVDNALQSGNSQESVTEQDSKDSTYSLLSSLTLSKADYEKHKVYACEVTHQGLSSPVTKSFNRGEC
notes: NCI/NIH CH1-CK stabilized Fab format; the CH1 and CK domains form a heterodimer via a disulphide bond; also called anti-CD3×CD20 BsAb; Fab format (VH-VL-CH1/VH-VL-CK)
**Q.** Does B1 bind (CD20)?
**A.** Result: binds

B2: QLB1005-0001 (bispecific antibody)
chain 1: QAVVTQEPSLTVSPGGTVTLTCRSSTGAVTTSNYANWVQQKPGQAPRGLIGGTNKRAPGVPARFSGSLLGDKAALTLSGAQPEDEAEYYCALWYSNLWVFGTGTKVTVLGGGGSGGGGSGGGGSEVQLVESGGGLVQPGGSLKLSCAASGFTFNTYAMNWVRQASGKGLEWVARIRSKYNNYATYYADSVKDRFTISRDDSKNTLYLQMNSLKTEDTAVYYCVRHGNFGNSYVSWFAYWGQGTLVTVSSGGGGSASTKGPSVFPLAPSSKSTSGGTAALGCLVKDYFPEPVTVSWNSGALTSGVHTFPAVLQSSGLYELVSVVTVPSSSLGTQTYICNVNHKPSNTKVDKKVEPKSC
chain 2: QIVLTQSPATLSLSPGERATLSCRASSSVSYIHWFQQKPGQAPRPWIYATSNLASGVPARFSGSGSGTDYTLTISSLEPEDFAVYYCQQWTSNPPTFGQGTKVEIKGGGGSGGGGSGGGGSQVQLVQSGAEVKKPGASVKVSCKASGYTFTSYNMHWVRQAPGQGLEWIGAIYPGNGDTSYNQKFKGKATLTADKSTSTAYMELSSLRSEDTAVYYCARSTYYGGDWYFNVWGQGTLVTVSSGGGGSRTVAAPSVFIFPPSDEQLKSGTASVVCLLNNFYPREAKVQWKVDNALQSGNSQESVTEQDSKDSTYSLLSSLTLSKADYEKHKVYACEVTHQGLSSPVTKSFNRGEC
notes: NCI/NIH CH1-CK stabilized Fab format; the CH1 and CK domains form a heterodimer via a disulphide bond; also called anti-CD3×CD20 BsAb; Fab format (VL-VH-CH1/VL-VH-CK)
**Q.** Does B2 bind (CD20)?
**A.** Result: binds

B3: QLB1005-0002 (bispecific antibody, human IgG1)
chain 1: EVQLVESGGGLVQPGGSLKLSCAASGFTFNTYAMNWVRQASGKGLEWVARIRSKYNNYATYYADSVKDRFTISRDDSKNTLYLQMNSLKTEDTAVYYCVRHGNFGNSYVSWFAYWGQGTLVTVSSGGGGSGGGGSGGGGSQAVVTQEPSLTVSPGGTVTLTCRSSTGAVTTSNYANWVQQKPGQAPRGLIGGTNKRAPGVPARFSGSLLGDKAALTLSGAQPEDEAEYYCALWYSNLWVFGTGTKVTVLGGGGSGGGGSGGGGSPKSCDKTHTCPPCPAPEAAGGPSVFLFPPKPKDTLMISRTPEVTCVVVDVSHEDPEVKFNWYVDGVEVHNAKTKPREEQYNSTYRVVSVLTVLHQDWLNGKEYKCKVSNKALGAPIEKTISKAKGQPREPQVCTLPPSRDELTKNQVSLSCAVKGFYPSDIAVEWESNGQPENNYKTTPPVLDSDGSFFLVSKLTVDKSRWQQGNVFSCSVMHEALHNHYTQKSLSLSPGK
chain 2: not shown
notes: scFv-Fc format with Knob-in-Hole and L234A, L235A (LALA) mutations in a human IgG1 Fc; The text also prints the name as QLB1005-02000; also called QLB1005-02000; QLB-1005-02000
**Q.** For B3, which EC50 (CD3) is on record?
**A.** The EC50 was 98.2 nM.
